Laboratory results reported in paper doi:10.1101/152272, “t-Darpp is an elongated monomer that binds to calcium and is phosphorylated by cyclin-dependent kinases 1 and 5” (bioRxiv, 2017).

Target: the molecule itself
Experiment: cross-linking; glutaraldehyde 0.1% or 1% (v/v), 30 min at 25°C, then SDS-PAGE (10% gel); each protein alone and an equimolar mixture of t-Darpp and Darpp-32

B1: Darpp-32 (natural protein, UniProt Q9UD71-1 1-204, looked up)
chain: MDPKDRKKIQFSVPAPPSQLDPRQVEMIRRRRPTPAMLFRLSEHSSPEEEASPHQRASGEGHHLKSKRPNPCAYTPPSLKAVQRIAESHLQSISNLNENQASEEEDELGELRELGYPREEDEEEEEDDEEEEEEEDSQAEVLKVIRQSAGQKTTCGQGLEGPWERPPPLDESERDGGSEDQVEDPALSEPGEEPQRPSPSEPGT
notes: Darpp-32, the longer isoform encoded by PPP1R1B, with 36 more residues at the N-terminus than t-Darpp; The printed UniProt entry is the human protein; The construct is probably the whole isoform, because the tail is said to be added to the C-terminus of Darpp-32; also called recombinant Darpp-32; longer isoform of t-Darpp; source: E. coli BL21 DE3, purified (Ni-NTA)
B1 was tested, and the “stoichiometry N” value was 2.
